According to patent publication US20110086364A1 (TEKNOLOGIAN TUTKIMUSKESKUS VTT, published 2011):

Molecular target: T1, immune complex of anti-THC T3 Fab and THC (tetrahydrocannabinol)
T1 construct: the target is the Fab-hapten complex; The Fab was labeled with europium (LANCE Eu-W1024 ITC chelate) for TR-FRET and biotinylated for phage selection; also called T3+THC complex; T3+THC immune complex
Experiment: homogeneous TR-FRET in saliva: Eu-labeled T3 Fab, Alexa Fluor 647-labeled Fab 104, spiked THC
Protocol: 40 μl saliva samples spiked with 0, 3.75, 7.5, 15, 30, 60 and 120 ng/ml of the following drugs: D9-THC, 11-OH-D9-THC, 11-nor-D9-THC-COOH, heroin and amphetamine were added to the wells. After short mixing, the time resolved fluorescence resonance energy transfer (TR-FRET) was measured by Victor V fluorometer (Perkin Elmer Wallac).

T1 sequence (VH, as listed by the source, chain 1 of 2): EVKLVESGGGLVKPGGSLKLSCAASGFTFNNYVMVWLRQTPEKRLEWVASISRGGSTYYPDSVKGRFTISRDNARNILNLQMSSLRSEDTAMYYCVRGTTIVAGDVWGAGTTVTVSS
T1 sequence (VL, as listed by the source, chain 2 of 2): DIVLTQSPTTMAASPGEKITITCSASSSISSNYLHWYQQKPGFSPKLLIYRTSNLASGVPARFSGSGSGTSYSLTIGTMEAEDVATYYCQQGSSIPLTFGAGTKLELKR

B1: anti-T3+THC immune complex Fab 104 (Fab, V domains shown)
VH: QVQLVQSGTEVKKPGATVKISCKFSGDNFIDYYMHWVKQAQGKGLEWLGLVDLGDGQTIYAEKFHGRGTITADSSRDTAYMELSSLRSEDTAVYYCAAAKAYRQGVMDVWGQGTLVTVSS
VL: NFMLTQPHSVSESPGKTVTISCTGSSGSIASNYVQWYQQRPGSAPTTVIYEDNQRPSGVPDRFSGSIDSSSNSASLTISGLKTEDEADYYCQSYDSSNQVFGGGTKLTVLG
notes: Labeled with Alexa Fluor 647 for the TR-FRET assay
B1: binds.
